Assay results from paper PMC3902925, “The double PHD finger domain of MOZ/MYST3 induces α-helical structure of the histone H3 tail to facilitate acetylation and methylation sampling and modification” (Nucleic Acids Research, 2013).

Target: histone H3 of calf thymus core histones (bovine (calf thymus), UniProt P68432 1-136)
Assay: cell-based or functional assay

initial rate of acetylation of core histones in time course HAT assays, DPF-MYST (194–810) against the MYST domain (510–810) alone: ≥ 8 fold
B1: GST-MOZ DPF-MYST (194–810) (enzyme)
chain: LPHEKDKPVAEPIPICSFCLGTKEQNREKKPEELISCADCGNSGHPSCLKFSPELTVRVKALRWQCIECKTCSSCRDQGKNADNMLFCDSCDRGFHMECCDPPLTRMPKGMWICQICRPRKKGRKLLQKKAAQIKRRYTNPIGRPKNRLKKQNTVSKGPFSKVRTGPGRGRKRKITLSSQSASSSSEEGYLERIDGLDFCRDSNVSLKFNKKTKGLIDGLTKFFTPSPDGRKARGEVVDYSEQYRIRKRGNRKSSTSDWPTDNQDGWDGKQENEERLFGSQEIMTEKDMELFRDIQEQALQKVGVTGPPDPQVRCPSVIEFGKYEIHTWYSSPYPQEYSRLPKLYLCEFCLKYMKSRTILQQHMKKCGWFHPPANEIYRKNNISVFEVDGNVSTIYCQNLCLLAKLFLDHKTLYYDVEPFLFYVLTQNDVKGCHLVGYFSKEKHCQQKYNVSCIMILPQYQRKGYGRFLIDFSYLLSKREGQAGSPEKPLSDLGRLSYMAYWKSVILECLYHQNDKQISIKKLSKLTGICPQDITSTLHHLRMLDFRSDQFVIIRREKLIQDHMAKLQLNLRPVDVDPECLRWTPVIVSNSVVSEEEEEEAEEGENEEPQCQERELE
